Test results taken from patent US20160272693A1 (ZEALAND PHARMA A S, published 2016).
*1 amine or outer side, *2 acyl side, *3 side chain or, on linkers, in order; H or OH if unused. Bridges are numbered along the chain shown (N, C = ends). [ ]: non-standard residue; d: D form. The star is where a group is joined. C20 diacid = O=C(O)CCCCCCCCCCCCCCCCCCC(=O)*; γGlu = O=C(O)[C@H](CCC(=O)[*:2])N[*:1]; Hyp = O=C(O)[C@@H]1C[C@@H](O)CN1; NMeI = CC[C@H](C)[C@H](NC)C(=O)O; Sar = CNCC(=O)O

T1: human amylin receptor 3 (hAMYR3), hCTR2 co-expressed with human receptor activity modifying protein 3 (hRAMP3) (human, UniProt P30988 25-474; O60896 24-148)
T1 sequence (looked up) 1: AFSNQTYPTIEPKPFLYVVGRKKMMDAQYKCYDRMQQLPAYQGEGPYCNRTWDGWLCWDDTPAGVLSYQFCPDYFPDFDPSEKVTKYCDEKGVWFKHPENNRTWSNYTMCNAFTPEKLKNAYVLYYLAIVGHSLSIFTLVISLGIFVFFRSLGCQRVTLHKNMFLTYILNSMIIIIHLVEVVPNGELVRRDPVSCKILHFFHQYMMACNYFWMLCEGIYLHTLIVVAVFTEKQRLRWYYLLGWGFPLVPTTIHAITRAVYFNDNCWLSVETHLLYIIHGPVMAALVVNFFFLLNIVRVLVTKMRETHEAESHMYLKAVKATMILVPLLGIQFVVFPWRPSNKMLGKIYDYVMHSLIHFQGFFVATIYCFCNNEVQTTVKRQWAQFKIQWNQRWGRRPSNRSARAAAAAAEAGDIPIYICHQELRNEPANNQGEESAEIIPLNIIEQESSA
T1 sequence (looked up) 2: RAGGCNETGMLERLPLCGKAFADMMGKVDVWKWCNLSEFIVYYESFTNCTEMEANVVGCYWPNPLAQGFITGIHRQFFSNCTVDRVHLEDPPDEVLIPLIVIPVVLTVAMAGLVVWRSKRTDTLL

B1: [19CD]-isoGlu-R-C( )-PTAT-C( )-ATDRLAHFLQRSSF-Gly(Me)-A-Ile(Me)-LSSTDVGSNT-Hyp-NH2 (Compd. 59) (peptide)
peptide: {C20 diacid}-[γGlu]RCPTATCATDRLAHFLQRSSF[Sar]A[NMeI]LSSTDVGSNT[Hyp]-NH2
modifications: disulfide 3-8
SMILES: CC[C@H](C)[C@@H](C(=O)N[C@@H](CC(C)C)C(=O)N[C@@H](CO)C(=O)N[C@@H](CO)C(=O)N[C@H](C(=O)N[C@@H](CC(=O)O)C(=O)N[C@H](C(=O)NCC(=O)N[C@@H](CO)C(=O)N[C@@H](CC(N)=O)C(=O)N[C@H](C(=O)N1C[C@H](O)C[C@H]1C(N)=O)[C@@H](C)O)C(C)C)[C@@H](C)O)N(C)C(=O)[C@H](C)NC(=O)CN(C)C(=O)[C@H](Cc1ccccc1)NC(=O)[C@H](CO)NC(=O)[C@H](CO)NC(=O)[C@H](CCCNC(=N)N)NC(=O)[C@H](CCC(N)=O)NC(=O)[C@H](CC(C)C)NC(=O)[C@H](Cc1ccccc1)NC(=O)[C@H](Cc1c[nH]cn1)NC(=O)[C@H](C)NC(=O)[C@H](CC(C)C)NC(=O)[C@H](CCCNC(=N)N)NC(=O)[C@H](CC(=O)O)NC(=O)[C@@H](NC(=O)[C@H](C)NC(=O)[C@@H]1CSSC[C@H](NC(=O)[C@H](CCCNC(=N)N)NC(=O)CC[C@H](NC(=O)CCCCCCCCCCCCCCCCCCC(=O)O)C(=O)O)C(=O)N2CCC[C@H]2C(=O)N[C@@H]([C@@H](C)O)C(=O)N[C@@H](C)C(=O)N[C@@H]([C@@H](C)O)C(=O)N1)[C@@H](C)O
B2: [19CD]-isoGlu-R-C( )-GTAT-C( )-ATERLAHFLNRSSF-Gly(Me)-A-Ile(Me)-LSSTEVGSNT-Hyp-NH2 (Compd. 6) (peptide)
peptide: {C20 diacid}-[γGlu]RCGTATCATERLAHFLNRSSF[Sar]A[NMeI]LSSTEVGSNT[Hyp]-NH2
modifications: disulfide 3-8
SMILES: CC[C@H](C)[C@@H](C(=O)N[C@@H](CC(C)C)C(=O)N[C@@H](CO)C(=O)N[C@@H](CO)C(=O)N[C@H](C(=O)N[C@@H](CCC(=O)O)C(=O)N[C@H](C(=O)NCC(=O)N[C@@H](CO)C(=O)N[C@@H](CC(N)=O)C(=O)N[C@H](C(=O)N1C[C@H](O)C[C@H]1C(N)=O)[C@@H](C)O)C(C)C)[C@@H](C)O)N(C)C(=O)[C@H](C)NC(=O)CN(C)C(=O)[C@H](Cc1ccccc1)NC(=O)[C@H](CO)NC(=O)[C@H](CO)NC(=O)[C@H](CCCNC(=N)N)NC(=O)[C@H](CC(N)=O)NC(=O)[C@H](CC(C)C)NC(=O)[C@H](Cc1ccccc1)NC(=O)[C@H](Cc1c[nH]cn1)NC(=O)[C@H](C)NC(=O)[C@H](CC(C)C)NC(=O)[C@H](CCCNC(=N)N)NC(=O)[C@H](CCC(=O)O)NC(=O)[C@@H](NC(=O)[C@H](C)NC(=O)[C@@H]1CSSC[C@H](NC(=O)[C@H](CCCNC(=N)N)NC(=O)CC[C@H](NC(=O)CCCCCCCCCCCCCCCCCCC(=O)O)C(=O)O)C(=O)NCC(=O)N[C@@H]([C@@H](C)O)C(=O)N[C@@H](C)C(=O)N[C@@H]([C@@H](C)O)C(=O)N1)[C@@H](C)O
B3: [19CD]-isoGlu-R-C( )-NTAT-C( )-ATERLAHFLQRSSF-Gly(Me)-A-Ile(Me)-LSSTEVGSDT-Hyp-NH2 (Compd. 60) (peptide)
peptide: {C20 diacid-γGlu}-RCNTATCATERLAHFLQRSSF[Sar]A[NMeI]LSSTEVGSDT[Hyp]-NH2
modifications: disulfide 2-7
SMILES: CC[C@H](C)[C@@H](C(=O)N[C@@H](CC(C)C)C(=O)N[C@@H](CO)C(=O)N[C@@H](CO)C(=O)N[C@H](C(=O)N[C@@H](CCC(=O)O)C(=O)N[C@H](C(=O)NCC(=O)N[C@@H](CO)C(=O)N[C@@H](CC(=O)O)C(=O)N[C@H](C(=O)N1C[C@H](O)C[C@H]1C(N)=O)[C@@H](C)O)C(C)C)[C@@H](C)O)N(C)C(=O)[C@H](C)NC(=O)CN(C)C(=O)[C@H](Cc1ccccc1)NC(=O)[C@H](CO)NC(=O)[C@H](CO)NC(=O)[C@H](CCCNC(=N)N)NC(=O)[C@H](CCC(N)=O)NC(=O)[C@H](CC(C)C)NC(=O)[C@H](Cc1ccccc1)NC(=O)[C@H](Cc1c[nH]cn1)NC(=O)[C@H](C)NC(=O)[C@H](CC(C)C)NC(=O)[C@H](CCCNC(=N)N)NC(=O)[C@H](CCC(=O)O)NC(=O)[C@@H](NC(=O)[C@H](C)NC(=O)[C@@H]1CSSC[C@H](NC(=O)[C@H](CCCNC(=N)N)NC(=O)CC[C@H](NC(=O)CCCCCCCCCCCCCCCCCCC(=O)O)C(=O)O)C(=O)N[C@@H](CC(N)=O)C(=O)N[C@@H]([C@@H](C)O)C(=O)N[C@@H](C)C(=O)N[C@@H]([C@@H](C)O)C(=O)N1)[C@@H](C)O
B4: [19CD]-isoGlu-R-C( )-NTAT-C( )-ATQRLAHFLQRSSF-Gly(Me)-A-Ile(Me)-LSSTEVGSNTP-NH2 (Compd. 61) (peptide)
peptide: {C20 diacid}-[γGlu]RCNTATCATQRLAHFLQRSSF[Sar]A[NMeI]LSSTEVGSNTP-NH2
modifications: disulfide 3-8
SMILES: CC[C@H](C)[C@@H](C(=O)N[C@@H](CC(C)C)C(=O)N[C@@H](CO)C(=O)N[C@@H](CO)C(=O)N[C@H](C(=O)N[C@@H](CCC(=O)O)C(=O)N[C@H](C(=O)NCC(=O)N[C@@H](CO)C(=O)N[C@@H](CC(N)=O)C(=O)N[C@H](C(=O)N1CCC[C@H]1C(N)=O)[C@@H](C)O)C(C)C)[C@@H](C)O)N(C)C(=O)[C@H](C)NC(=O)CN(C)C(=O)[C@H](Cc1ccccc1)NC(=O)[C@H](CO)NC(=O)[C@H](CO)NC(=O)[C@H](CCCNC(=N)N)NC(=O)[C@H](CCC(N)=O)NC(=O)[C@H](CC(C)C)NC(=O)[C@H](Cc1ccccc1)NC(=O)[C@H](Cc1c[nH]cn1)NC(=O)[C@H](C)NC(=O)[C@H](CC(C)C)NC(=O)[C@H](CCCNC(=N)N)NC(=O)[C@H](CCC(N)=O)NC(=O)[C@@H](NC(=O)[C@H](C)NC(=O)[C@@H]1CSSC[C@H](NC(=O)[C@H](CCCNC(=N)N)NC(=O)CC[C@H](NC(=O)CCCCCCCCCCCCCCCCCCC(=O)O)C(=O)O)C(=O)N[C@@H](CC(N)=O)C(=O)N[C@@H]([C@@H](C)O)C(=O)N[C@@H](C)C(=O)N[C@@H]([C@@H](C)O)C(=O)N1)[C@@H](C)O
B5: [19CD]-isoGlu-R-C( )-NTAT-C( )-ATERLAHFLQRSSF-Gly(Me)-A-Ile(Me)-LSSTEVGSNTP-NH2 (Compd. 62) (peptide)
peptide: {C20 diacid-γGlu}-RCNTATCATERLAHFLQRSSF[Sar]A[NMeI]LSSTEVGSNTP-NH2
modifications: disulfide 2-7
SMILES: CC[C@H](C)[C@@H](C(=O)N[C@@H](CC(C)C)C(=O)N[C@@H](CO)C(=O)N[C@@H](CO)C(=O)N[C@H](C(=O)N[C@@H](CCC(=O)O)C(=O)N[C@H](C(=O)NCC(=O)N[C@@H](CO)C(=O)N[C@@H](CC(N)=O)C(=O)N[C@H](C(=O)N1CCC[C@H]1C(N)=O)[C@@H](C)O)C(C)C)[C@@H](C)O)N(C)C(=O)[C@H](C)NC(=O)CN(C)C(=O)[C@H](Cc1ccccc1)NC(=O)[C@H](CO)NC(=O)[C@H](CO)NC(=O)[C@H](CCCNC(=N)N)NC(=O)[C@H](CCC(N)=O)NC(=O)[C@H](CC(C)C)NC(=O)[C@H](Cc1ccccc1)NC(=O)[C@H](Cc1c[nH]cn1)NC(=O)[C@H](C)NC(=O)[C@H](CC(C)C)NC(=O)[C@H](CCCNC(=N)N)NC(=O)[C@H](CCC(=O)O)NC(=O)[C@@H](NC(=O)[C@H](C)NC(=O)[C@@H]1CSSC[C@H](NC(=O)[C@H](CCCNC(=N)N)NC(=O)CC[C@H](NC(=O)CCCCCCCCCCCCCCCCCCC(=O)O)C(=O)O)C(=O)N[C@@H](CC(N)=O)C(=O)N[C@@H]([C@@H](C)O)C(=O)N[C@@H](C)C(=O)N[C@@H]([C@@H](C)O)C(=O)N1)[C@@H](C)O
B6: [19CD]-isoGlu-R-C( )-PTAT-C( )-ATERLAHFLQRSSF-Gly(Me)-A-Ile(Me)-LSSTEVGSNT-Hyp-NH2 (Compd. 63) (peptide)
peptide: {C20 diacid}-[γGlu]RCPTATCATERLAHFLQRSSF[Sar]A[NMeI]LSSTEVGSNT[Hyp]-NH2
modifications: disulfide 3-8
SMILES: CC[C@H](C)[C@@H](C(=O)N[C@@H](CC(C)C)C(=O)N[C@@H](CO)C(=O)N[C@@H](CO)C(=O)N[C@H](C(=O)N[C@@H](CCC(=O)O)C(=O)N[C@H](C(=O)NCC(=O)N[C@@H](CO)C(=O)N[C@@H](CC(N)=O)C(=O)N[C@H](C(=O)N1C[C@H](O)C[C@H]1C(N)=O)[C@@H](C)O)C(C)C)[C@@H](C)O)N(C)C(=O)[C@H](C)NC(=O)CN(C)C(=O)[C@H](Cc1ccccc1)NC(=O)[C@H](CO)NC(=O)[C@H](CO)NC(=O)[C@H](CCCNC(=N)N)NC(=O)[C@H](CCC(N)=O)NC(=O)[C@H](CC(C)C)NC(=O)[C@H](Cc1ccccc1)NC(=O)[C@H](Cc1c[nH]cn1)NC(=O)[C@H](C)NC(=O)[C@H](CC(C)C)NC(=O)[C@H](CCCNC(=N)N)NC(=O)[C@H](CCC(=O)O)NC(=O)[C@@H](NC(=O)[C@H](C)NC(=O)[C@@H]1CSSC[C@H](NC(=O)[C@H](CCCNC(=N)N)NC(=O)CC[C@H](NC(=O)CCCCCCCCCCCCCCCCCCC(=O)O)C(=O)O)C(=O)N2CCC[C@H]2C(=O)N[C@@H]([C@@H](C)O)C(=O)N[C@@H](C)C(=O)N[C@@H]([C@@H](C)O)C(=O)N1)[C@@H](C)O
B7: [19CD]-isoGlu-R-C( )-PTAT-C( )-ATQRLAHFLQRSSF-Gly(Me)-A-Ile(Me)-LSSTEVGSNT-Hyp-NH2 (Compd. 64) (peptide)
peptide: {C20 diacid}-[γGlu]RCPTATCATQRLAHFLQRSSF[Sar]A[NMeI]LSSTEVGSNT[Hyp]-NH2
modifications: disulfide 3-8
SMILES: CC[C@H](C)[C@@H](C(=O)N[C@@H](CC(C)C)C(=O)N[C@@H](CO)C(=O)N[C@@H](CO)C(=O)N[C@H](C(=O)N[C@@H](CCC(=O)O)C(=O)N[C@H](C(=O)NCC(=O)N[C@@H](CO)C(=O)N[C@@H](CC(N)=O)C(=O)N[C@H](C(=O)N1C[C@H](O)C[C@H]1C(N)=O)[C@@H](C)O)C(C)C)[C@@H](C)O)N(C)C(=O)[C@H](C)NC(=O)CN(C)C(=O)[C@H](Cc1ccccc1)NC(=O)[C@H](CO)NC(=O)[C@H](CO)NC(=O)[C@H](CCCNC(=N)N)NC(=O)[C@H](CCC(N)=O)NC(=O)[C@H](CC(C)C)NC(=O)[C@H](Cc1ccccc1)NC(=O)[C@H](Cc1c[nH]cn1)NC(=O)[C@H](C)NC(=O)[C@H](CC(C)C)NC(=O)[C@H](CCCNC(=N)N)NC(=O)[C@H](CCC(N)=O)NC(=O)[C@@H](NC(=O)[C@H](C)NC(=O)[C@@H]1CSSC[C@H](NC(=O)[C@H](CCCNC(=N)N)NC(=O)CC[C@H](NC(=O)CCCCCCCCCCCCCCCCCCC(=O)O)C(=O)O)C(=O)N2CCC[C@H]2C(=O)N[C@@H]([C@@H](C)O)C(=O)N[C@@H](C)C(=O)N[C@@H]([C@@H](C)O)C(=O)N1)[C@@H](C)O

These binders were tested against T1, human amylin receptor 3 (hAMYR3), hCTR2 … (assay: cell-based or functional assay).

| Binder | hAMYR3 EC50 (nM); cAMP induction [nM] |
| --- | --- |
| B1 | 0.11 |
| B2 | 0.22 |
| B3 | 0.09 |
| B4 | 0.17 |
| B5 | 0.22 |
| B6 | 0.37 |
| B7 | 0.15 |
